Measurements: patent US20250206795

Test system: T1, Mouse proBDNF-G-CSF-Tr protein
T1 sequence: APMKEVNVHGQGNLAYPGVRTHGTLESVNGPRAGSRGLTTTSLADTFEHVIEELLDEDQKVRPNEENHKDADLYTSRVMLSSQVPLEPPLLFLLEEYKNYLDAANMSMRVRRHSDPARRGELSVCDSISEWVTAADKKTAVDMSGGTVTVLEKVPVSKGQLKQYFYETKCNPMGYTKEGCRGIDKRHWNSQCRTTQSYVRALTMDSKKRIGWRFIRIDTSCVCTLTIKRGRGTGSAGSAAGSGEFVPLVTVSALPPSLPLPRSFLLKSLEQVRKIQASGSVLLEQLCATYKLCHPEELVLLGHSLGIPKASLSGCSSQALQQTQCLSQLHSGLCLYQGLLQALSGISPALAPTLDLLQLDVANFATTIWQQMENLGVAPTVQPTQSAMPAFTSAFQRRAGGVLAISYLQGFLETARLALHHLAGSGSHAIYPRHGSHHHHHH

furin
enzymatic cleavage (SDS PAGE and Western blot with anti-4-His antibodies), 1 Unit furin, 30 C, 4 hours: furin effectively cleaved the proBDNF-G-CSF-Tr molecule to yield BDNF-G-CSF-Tr
